What was measured:
H4Tetra^ac nucleosome = H4Tetra^ac nucleosome (UniProt P68431); test: AlphaScreen or HTRF; dCypher: GST-CECR2-BRD titrated against PTM-defined nucleosomes (10 nM); glutathione Acceptor and streptavidin Donor beads; 20 mM Tris pH 7.5, 250 mM NaCl, 0.01% NP-40, 0.01% BSA, 1 mM DTT; room temperature; relative EC50 (EC50^rel)
H3Tetra^ac nucleosome = H3Tetra^ac nucleosome (UniProt P68431); test: as above

Chain of GST-CECR2-BRD (GST tag retained, for dCypher assays) (Q9BXF3 424-538): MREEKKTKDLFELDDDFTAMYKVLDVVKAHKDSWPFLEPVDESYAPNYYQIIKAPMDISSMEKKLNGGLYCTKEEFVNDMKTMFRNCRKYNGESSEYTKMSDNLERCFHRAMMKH

GST-CECR2-BRD (GST tag retained, for dCypher assays) (from UniProt Q9BXF3-1 424-538) (domain or fragment)
EC50 (H4Tetra^ac nucleosome): 9.2 nM | EC50 (H3Tetra^ac nucleosome): 6 nM
